Columns and labels:
[1] = molecular target: serum albumin (UniProt P02768 25-609); assay: electrochemical impedance spectroscopy; albumin 5,000 mg/dL; Rct did not increase (slight decrease); PBS (187 mM NaCl, 2.7 mM KCl, 8.1 mM Na2HPO4, 1.76 mM KH2PO4, pH 7.0), room temperature; aptamer 1 uM adsorbed on graphite-epoxy electrode, PEG blocking; conditions: G-quadruplex (quadriplex)
[2] = molecular target: thrombin (UniProt P00734;P00734 328-363;364-622); assay: electrochemical impedance spectroscopy; linear response 7.5-75 pM, detection limit 4.5 pM; PEG-blocked electrode, [Fe(CN)6]3-/4- probe; complex broken by 2.0 M NaCl at 42 C; PBS (187 mM NaCl, 2.7 mM KCl, 8.1 mM Na2HPO4, 1.76 mM KH2PO4, pH 7.0), room temperature; aptamer 1 uM adsorbed on graphite-epoxy electrode, PEG blocking

Chain of serum albumin (P02768 25-609): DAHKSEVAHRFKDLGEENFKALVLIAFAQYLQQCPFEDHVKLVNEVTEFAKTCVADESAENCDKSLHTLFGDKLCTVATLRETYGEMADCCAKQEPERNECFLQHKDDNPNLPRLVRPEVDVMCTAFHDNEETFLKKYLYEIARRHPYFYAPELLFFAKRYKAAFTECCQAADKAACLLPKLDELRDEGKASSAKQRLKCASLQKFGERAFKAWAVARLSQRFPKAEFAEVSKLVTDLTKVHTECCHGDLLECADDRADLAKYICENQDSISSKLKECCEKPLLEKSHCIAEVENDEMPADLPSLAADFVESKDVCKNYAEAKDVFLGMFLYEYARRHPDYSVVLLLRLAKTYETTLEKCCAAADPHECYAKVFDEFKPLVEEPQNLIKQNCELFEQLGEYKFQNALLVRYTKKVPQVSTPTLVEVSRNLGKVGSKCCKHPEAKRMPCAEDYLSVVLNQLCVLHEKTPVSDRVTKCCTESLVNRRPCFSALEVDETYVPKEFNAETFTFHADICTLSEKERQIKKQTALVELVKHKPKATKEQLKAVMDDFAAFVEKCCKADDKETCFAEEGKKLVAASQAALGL

B1: AptThr (structured_DNA)
DNA: GGTTGGTGTGGTTGG
- binding result [1]: no binding
- binding result [2]: binds
